From PMC7573786 (Chemical communications (Cambridge, England), 2020) come the findings set out here.

Test [1] has as its target CBX1 chromodomain Y26AzF/F50AzF (UniProt P83916 20-73, Y26AzF, 4-azido-L-phenylalanine (AzF) at 26 and at 50). As to the kind of experiment: fluorescence polarisation.
Test [2] has as its target T1, wild type chromodomain of CBX1 (Chromobox protein 1) (UniProt P83916 20-73). Nature of the test: fluorescence polarisation.
The target of test [3] is CBX1 chromodomain Y26AzF/D54AzF (UniProt P83916 20-73, Y26AzF, 4-azido-L-phenylalanine (AzF) at 26 and at 54). Nature of the test: fluorescence polarisation.
The target of test [4] is T1, wild type chromodomain of CBX1 …. Nature of the test: ITC.

As for ARTKQTARKSTGGKA (trimethyllysine at K9; tetramethyl rhodamine (TAMRA) at the N-terminus) [TAMRA-H3K9me3 tracer peptide 2], the figures for the Kd in test [1], in test [2] and in test [3] were 48.9 ± 8.7 µM, 1.7 ± 0.2 µM and 50.8 ± 5.7 µM, respectively.
In turn, ARTKQTARKSTGGKA (trimethyllysine at K9) [H3K9me3 peptide 3 (non-TAMRA)] gave a dissociation constant (Kd) in test [4] of 5.3 ± 0.4 µM.
